# Test results: the supplement of paper PMC10567573
# B1: SLC35F2 (parent)
# chain: SFMPLVIKVTSATSVNLGILTADL
# B2: MAGEA6 (parent)
# chain: KISGGPRISYPLLHEWALREGEE
# Variants of: B1
# Assay: protein stability index of a GFP-peptide fusion (GPS, HEK-293T) (PSI 1-6); higher = more stable
# Settings: c terminus: a fixed tail appended
# 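Further: lentivirally expressed fusions sorted by FACS into six bins by GFP to DsRed ratio, PSI derived from sequencing read proportions per bin multiplied by bin number.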
row,Variant,protein stability index
1,SFMPLVIKVTSATSVNLGILEADL [T21E],2.86
2,SFMPLVIKVTSATSVNLGILWADL [T21W],2.7
3,SFMPLVIKVTSATSVNLGILSADL [T21S],3.64
4,SFMPLVIKVTSATSVNLGILFADL [T21F],1.85
5,SFMPLVIKVTSATSVNLGILPADL [T21P],2.5
6,SFMPLVIKVTSATSVNLGILRADL [T21R],3.24
7,SFMPLVIKVTSATSVNLGILGADL [T21G],2.24
8,SFMPLVIKVTSATCVNLGILTADL [S14C],3.32
9,SFMPLVIKVTSATPVNLGILTADL [S14P],2.44
10,SFMPLVIKVTSATQVNLGILTADL [S14Q],1.71
11,SFMPLVIKVTSATHVNLGILTADL [S14H],1.79
12,SFMPLVIKVTSATRVNLGILTADL [S14R],2.42
13,SFMPLVIKVTSATWVNLGILTADL [S14W],2.61
14,SFMPLVIKVTSARSVNLGILTADL [T13R],3.63
15,SFMPLVIKVTSAKSVNLGILTADL [T13K],2.16
16,SFMPLVIKVTSAASVNLGILTADL [T13A],3.02
17,SFMPLVIKVTSATSVNLGINTADL [L20N],1.97

row,Variant,protein stability index
1,SFMPLVIKVTSATSVNLGICTADL [L20C],2.67
2,SFMPLVIKVTSATSVNLGIHTADL [L20H],3.07
3,SFMPLVIKVTSATSVNLGIWTADL [L20W],3.1
4,SFMPLVIKVTSATSVNLGIGTADL [L20G],2.2
5,SFMPLVIKVTSATSVNLGISTADL [L20S],2.8
6,SFMPLVIKVTSATSVNLGIITADL [L20I],3.65
7,SFMPLVICVTSATSVNLGILTADL [K8C],3.64
8,SFMPLVIMVTSATSVNLGILTADL [K8M],2.42
9,SFMPLVIIVTSATSVNLGILTADL [K8I],3.97
10,SFMPLVIDVTSATSVNLGILTADL [K8D],2.75
11,SFMPLVIRVTSATSVNLGILTADL [K8R],3.26
12,SFMPLVIKVTSATSVNLVILTADL [G18V],2.17
13,SFMPLVIKVTSATSVNLFILTADL [G18F],3.03
14,SFMPLVIKVTSATSVNLPILTADL [G18P],2.47
15,SFMPLVIKVTSATSVNLTILTADL [G18T],3.29
16,SFMPLVIKVTSATSVNLNILTADL [G18N],3.27
17,SFMPLVIKVTSATSVNLCILTADL [G18C],3.82

# Variants of: B2
# Assay: as above
# Settings: c terminus: native
row,Variant,protein stability index
1,KISGGPRPSYPLLHEWALREGEE [I8P],2.24
2,KISGGPRQSYPLLHEWALREGEE [I8Q],2.06
3,KISGGPRGSYPLLHEWALREGEE [I8G],3.28
4,KISGGPRASYPLLHEWALREGEE [I8A],1.95
5,KISGGPRYSYPLLHEWALREGEE [I8Y],2.6
6,KISGGPRCSYPLLHEWALREGEE [I8C],2.79
7,KISGGPRMSYPLLHEWALREGEE [I8M],2
8,KISGGPPISYPLLHEWALREGEE [R7P],2.65
9,KISGGPLISYPLLHEWALREGEE [R7L],1.92
10,KISGGPGISYPLLHEWALREGEE [R7G],2.84
11,KISGGPIISYPLLHEWALREGEE [R7I],4.03
12,KDSGGPRISYPLLHEWALREGEE [I2D],4
13,KWSGGPRISYPLLHEWALREGEE [I2W],2.41
14,KCSGGPRISYPLLHEWALREGEE [I2C],2.55
15,KPSGGPRISYPLLHEWALREGEE [I2P],3.29
16,KISSGPRISYPLLHEWALREGEE [G4S],5.95
17,KISVGPRISYPLLHEWALREGEE [G4V],1.61
18,KISIGPRISYPLLHEWALREGEE [G4I],3.06
19,KISTGPRISYPLLHEWALREGEE [G4T],4.54
20,KISPGPRISYPLLHEWALREGEE [G4P],5.66
21,KISWGPRISYPLLHEWALREGEE [G4W],2.78

row,Variant,protein stability index
1,KISCGPRISYPLLHEWALREGEE [G4C],3.34
2,KISGGSRISYPLLHEWALREGEE [P6S],2.73
3,KISGGNRISYPLLHEWALREGEE [P6N],3.51
4,KISGGGRISYPLLHEWALREGEE [P6G],1.91
5,KISGGCRISYPLLHEWALREGEE [P6C],2.05
6,KISGGKRISYPLLHEWALREGEE [P6K],1.55
7,KISGGRRISYPLLHEWALREGEE [P6R],3.64
8,KISGGTRISYPLLHEWALREGEE [P6T],2.8
9,KISGGIRISYPLLHEWALREGEE [P6I],3.5
10,KISGGARISYPLLHEWALREGEE [P6A],2.25
11,KISGTPRISYPLLHEWALREGEE [G5T],3.04
12,KISGDPRISYPLLHEWALREGEE [G5D],2.6
13,KISGCPRISYPLLHEWALREGEE [G5C],3.47
14,KISGAPRISYPLLHEWALREGEE [G5A],2.31
15,KISGYPRISYPLLHEWALREGEE [G5Y],3.51
16,KISGFPRISYPLLHEWALREGEE [G5F],2.74
17,KISGHPRISYPLLHEWALREGEE [G5H],1.73
18,KISGKPRISYPLLHEWALREGEE [G5K],2.48
19,KISGGPRISLPLLHEWALREGEE [Y10L],3.04
20,KISGGPRISKPLLHEWALREGEE [Y10K],3.2
21,KISGGPRISQPLLHEWALREGEE [Y10Q],3.78

row,Variant,protein stability index
1,KISGGPRISHPLLHEWALREGEE [Y10H],2.83
2,KISGGPRIFYPLLHEWALREGEE [S9F],1.61
3,KISGGPRICYPLLHEWALREGEE [S9C],3.18
4,KISGGPRILYPLLHEWALREGEE [S9L],3.34
5,FISGGPRISYPLLHEWALREGEE [K1F],1.67
6,WISGGPRISYPLLHEWALREGEE [K1W],2.14
7,NISGGPRISYPLLHEWALREGEE [K1N],2.62
8,QISGGPRISYPLLHEWALREGEE [K1Q],2.35
9,DISGGPRISYPLLHEWALREGEE [K1D],3.3
10,KISGGPRISYHLLHEWALREGEE [P11H],2.24
11,KISGGPRISYMLLHEWALREGEE [P11M],2.61
12,KISGGPRISYELLHEWALREGEE [P11E],3.27
13,KISGGPRISYILLHEWALREGEE [P11I],2.41
14,KISGGPRISYLLLHEWALREGEE [P11L],2.3
15,KISGGPRISYQLLHEWALREGEE [P11Q],2.63
16,KISGGPRISYRLLHEWALREGEE [P11R],3.25
17,KIWGGPRISYPLLHEWALREGEE [S3W],2.02
18,KIMGGPRISYPLLHEWALREGEE [S3M],2.63
19,KITGGPRISYPLLHEWALREGEE [S3T],1.81
